From US20220273789A1
Values joined by “and” are separate entries in the source; they are usually repeats but may differ in a detail not shown here. Equal entries are not always repeated. Where two headings read alike, the source gives them in different places.

Assays:
[1] = target: Human IgG isotype control (ThermoFischer Scientific, ref 12000C) (human); test: BLI, gEgI on Ni-NTA tips, hIgG in solution
human IgG (human) [2] = test: BLI (Octet), gEgI on Ni-NTA sensor, hIgG in solution
human IgG (human) [3] = test: as above; remark: listed apart in the source

Substance | Kd [1] | Relative Affinity (%) compared to control construct HSV34 [1] | koff [1] | kon [1] | Kd (human IgG (human) [2]) | Response (human IgG (human) [2]) | koff (human IgG (human) [2]) | kon (human IgG (human) [2]) | Kd (human IgG (human) [3]) | Response (human IgG (human) [3])
HSV46 (HSV2- gE_P319A_gI) (from UniProt P89475 21-416; P06764 21-256) (receptor) | 73.5 nM | 158% | 0.000482 s⁻¹ | 6630 M⁻¹ s⁻¹ |  |  |  |  |  | 
HSV49 (HSV2- gE_P319K_gI) (from UniProt P89475 21-416; P06764 21-256) (receptor) | 1710 nM | 7% | 0.00217 s⁻¹ | 1340 M⁻¹ s⁻¹ |  |  |  |  |  | 
HSV59 (HSV2- gE_S338D_gI) (from UniProt P89475 21-416; P06764 21-256) (receptor) | 890 nM | 13% | 0.00128 s⁻¹ | 1550 M⁻¹ s⁻¹ |  |  |  |  |  | 
HSV56 (HSV2- gE_A337G_gI) (from UniProt P89475 21-416; P06764 21-256) (receptor) | 98.9 nM | 117% | 0.00082 s⁻¹ | 8430 M⁻¹ s⁻¹ |  |  |  |  |  | 
HSV62 (HSV2- gE_N241A-R320D_gI) (from UniProt P89475 21-416; P06764 21-256) (receptor) | 4200 nM | 3% | 0.00129 s⁻¹ | 317 M⁻¹ s⁻¹ |  |  |  |  |  | 
HSV58 (HSV2- gE_P319S_gI) (from UniProt P89475 21-416; P06764 21-256) (receptor) | 116 nM | 100% | 0.000604 s⁻¹ | 5290 M⁻¹ s⁻¹ |  |  |  |  |  | 
HSV47 (HSV2- gE_P319R_gI) (from UniProt P89475 21-416; P06764 21-256) (receptor) | 2550 nM | 5% | 0.00355 s⁻¹ | 1490 M⁻¹ s⁻¹ |  |  |  |  |  | 
HSV43 (HSV2- gE_H245A_gI) (from UniProt P89475 21-416; P06764 21-256) (receptor) |  |  | < 1e-07 s⁻¹ | 9410 M⁻¹ s⁻¹ |  |  |  |  |  | 
HSV45 (HSV2- gE_P317R_gI) (from UniProt P89475 21-416; P06764 21-256) (receptor) | 1510 nM | 8% | 0.00347 s⁻¹ | 2340 M⁻¹ s⁻¹ | 192 nM and 240 nM | 0.181 nm and 0.119 nm | 0.00137 s⁻¹ and 0.00156 s⁻¹ | 7110 M⁻¹ s⁻¹ and 6520 M⁻¹ s⁻¹ |  | 
HSV40 (HSV2- gE_289_insert ADIGL_gI) (from UniProt P89475 21-416; P06764 21-256) (receptor) | 628 nM | 18% | 0.00519 s⁻¹ | 8240 M⁻¹ s⁻¹ |  |  |  |  |  | 
HSV2-gE_A246W-R320D_gI (from UniProt P89475 21-416; P06764 21-256) (receptor) |  |  |  |  |  |  |  |  | 0.001 nM | 0.0712 nm
HSV48 (HSV2- gE_P319G_gI) (from UniProt P89475 21-416; P06764 21-256) (receptor) | 700 nM | 17% | 0.00556 s⁻¹ | 8130 M⁻¹ s⁻¹ |  |  |  |  |  | 
HSV60 (HSV2- gE_N241A_gI) (from UniProt P89475 21-416; P06764 21-256) (receptor) | 81.9 nM | 142% | 0.000727 s⁻¹ | 8990 M⁻¹ s⁻¹ |  |  |  |  |  | 
HSV2-gE_R314L V340M_gI (from UniProt P89475 21-416; P06764 21-256) (receptor) |  |  |  |  | 452 nM | 0.427 nm | 0.00456 s⁻¹ | 10100 M⁻¹ s⁻¹ |  | 
HSV2-gE_H245S P319G_gI (from UniProt P89475 21-416; P06764 21-256) (receptor) |  |  |  |  | 363 nM | 0.313 nm | 0.0027 s⁻¹ | 7440 M⁻¹ s⁻¹ |  | 
HSV2-gE_R314L P318I_gI (from UniProt P89475 21-416; P06764 21-256) (receptor) |  |  |  |  | 261 nM | 0.294 nm | 0.00198 s⁻¹ | 7580 M⁻¹ s⁻¹ |  | 
HSV53 (HSV2- gE_H245A-P319G_gI) (from UniProt P89475 21-416; P06764 21-256) (receptor) | 807 nM | 14% | 0.00349 s⁻¹ | 4480 M⁻¹ s⁻¹ |  |  |  |  |  | 
HSV51 (HSV2- gE_H245A-P319A_gI) (from UniProt P89475 21-416; P06764 21-256) (receptor) |  |  | < 1e-07 s⁻¹ | 11000 M⁻¹ s⁻¹ |  |  |  |  |  | 
HSV2-gE_P317K V340M_gI (from UniProt P89475 21-416; P06764 21-256) (receptor) |  |  |  |  | 297 nM | 0.238 nm | 0.00199 s⁻¹ | 6690 M⁻¹ s⁻¹ |  | 
HSV2-gE_R314L P318R_gI (from UniProt P89475 21-416; P06764 21-256) (receptor) |  |  |  |  | < 0.001 nM | 0.202 nm | < 1e-07 s⁻¹ | 8050 M⁻¹ s⁻¹ |  | 
HSV2-gE_P318R S338H_gI (from UniProt P89475 21-416; P06764 21-256) (receptor) |  |  |  |  | 5.32 nM | 0.192 nm | 4.28e-05 s⁻¹ | 8050 M⁻¹ s⁻¹ |  | 
